Experimental data as given in publication PMC7729135, “PPARγ S273 Phosphorylation Modifies the Dynamics of Coregulator Proteins Recruitment” (Frontiers in Endocrinology, 2020).
Values belong to the molecule of their own block, whether it stands above or below them.

B1: PPARγ LBD (aa207-aa477), purified (domain or fragment, UniProt P37231-2 207-477, looked up)
chain: ESADLRALAKHLYDSYIKSFPLTKAKARAILTGKTTDKSPFVIYDMNSLMMGEDKIKFKHITPLQEQSKEVAIRIFQGCQFRSVEAVQEITEYAKSIPGFVNLDLNDQVTLLKYGVHEIIYTMLASLMNKDGVLISEGQGFMTREFLKSLRKPFGDFMEPKFEFAVKFNALELDDSDLAIFIAVIILSGDRPGLLNVKPIEDIQDNLLQALELQLKLNHPESSQLFAKLLQKMTDLRQIVTEHVQLLQVIKKTETDMSLHPLLQEIYKDLY
notes: also called PPARγ wt; PPARγ wild-type

Assays:
[1] = biological target: VP16-PPARγ (LBD region of PPARγ fused to the VP16 transactivation domain) (UniProt P37231); test: mammalian two-hybrid assay; details: for response: read off a plot; for other: Dissociation ratio / other: Fold activation: Rosiglitazone against no treatment
[2] = biological target: Gal-SMRT (ID1 + ID2, human SMRT from 982 to the C terminus) (human); test: two-hybrid; mammalian two-hybrid in Hek293T cells (corepressors): Gal4 DBD-corepressor + VP16-PPARγ LBD + pGRE-LUC + Renilla control; with or without 1 μM Rosiglitazone for 24 h; interaction rate = luminescence divided by that of the corepressor without PPARγ
Gal-SMRT (ID1 + ID2, human SMRT from 982 to the C terminus) (human), sequence (Q9Y618 whole entry, the tested form may be a part): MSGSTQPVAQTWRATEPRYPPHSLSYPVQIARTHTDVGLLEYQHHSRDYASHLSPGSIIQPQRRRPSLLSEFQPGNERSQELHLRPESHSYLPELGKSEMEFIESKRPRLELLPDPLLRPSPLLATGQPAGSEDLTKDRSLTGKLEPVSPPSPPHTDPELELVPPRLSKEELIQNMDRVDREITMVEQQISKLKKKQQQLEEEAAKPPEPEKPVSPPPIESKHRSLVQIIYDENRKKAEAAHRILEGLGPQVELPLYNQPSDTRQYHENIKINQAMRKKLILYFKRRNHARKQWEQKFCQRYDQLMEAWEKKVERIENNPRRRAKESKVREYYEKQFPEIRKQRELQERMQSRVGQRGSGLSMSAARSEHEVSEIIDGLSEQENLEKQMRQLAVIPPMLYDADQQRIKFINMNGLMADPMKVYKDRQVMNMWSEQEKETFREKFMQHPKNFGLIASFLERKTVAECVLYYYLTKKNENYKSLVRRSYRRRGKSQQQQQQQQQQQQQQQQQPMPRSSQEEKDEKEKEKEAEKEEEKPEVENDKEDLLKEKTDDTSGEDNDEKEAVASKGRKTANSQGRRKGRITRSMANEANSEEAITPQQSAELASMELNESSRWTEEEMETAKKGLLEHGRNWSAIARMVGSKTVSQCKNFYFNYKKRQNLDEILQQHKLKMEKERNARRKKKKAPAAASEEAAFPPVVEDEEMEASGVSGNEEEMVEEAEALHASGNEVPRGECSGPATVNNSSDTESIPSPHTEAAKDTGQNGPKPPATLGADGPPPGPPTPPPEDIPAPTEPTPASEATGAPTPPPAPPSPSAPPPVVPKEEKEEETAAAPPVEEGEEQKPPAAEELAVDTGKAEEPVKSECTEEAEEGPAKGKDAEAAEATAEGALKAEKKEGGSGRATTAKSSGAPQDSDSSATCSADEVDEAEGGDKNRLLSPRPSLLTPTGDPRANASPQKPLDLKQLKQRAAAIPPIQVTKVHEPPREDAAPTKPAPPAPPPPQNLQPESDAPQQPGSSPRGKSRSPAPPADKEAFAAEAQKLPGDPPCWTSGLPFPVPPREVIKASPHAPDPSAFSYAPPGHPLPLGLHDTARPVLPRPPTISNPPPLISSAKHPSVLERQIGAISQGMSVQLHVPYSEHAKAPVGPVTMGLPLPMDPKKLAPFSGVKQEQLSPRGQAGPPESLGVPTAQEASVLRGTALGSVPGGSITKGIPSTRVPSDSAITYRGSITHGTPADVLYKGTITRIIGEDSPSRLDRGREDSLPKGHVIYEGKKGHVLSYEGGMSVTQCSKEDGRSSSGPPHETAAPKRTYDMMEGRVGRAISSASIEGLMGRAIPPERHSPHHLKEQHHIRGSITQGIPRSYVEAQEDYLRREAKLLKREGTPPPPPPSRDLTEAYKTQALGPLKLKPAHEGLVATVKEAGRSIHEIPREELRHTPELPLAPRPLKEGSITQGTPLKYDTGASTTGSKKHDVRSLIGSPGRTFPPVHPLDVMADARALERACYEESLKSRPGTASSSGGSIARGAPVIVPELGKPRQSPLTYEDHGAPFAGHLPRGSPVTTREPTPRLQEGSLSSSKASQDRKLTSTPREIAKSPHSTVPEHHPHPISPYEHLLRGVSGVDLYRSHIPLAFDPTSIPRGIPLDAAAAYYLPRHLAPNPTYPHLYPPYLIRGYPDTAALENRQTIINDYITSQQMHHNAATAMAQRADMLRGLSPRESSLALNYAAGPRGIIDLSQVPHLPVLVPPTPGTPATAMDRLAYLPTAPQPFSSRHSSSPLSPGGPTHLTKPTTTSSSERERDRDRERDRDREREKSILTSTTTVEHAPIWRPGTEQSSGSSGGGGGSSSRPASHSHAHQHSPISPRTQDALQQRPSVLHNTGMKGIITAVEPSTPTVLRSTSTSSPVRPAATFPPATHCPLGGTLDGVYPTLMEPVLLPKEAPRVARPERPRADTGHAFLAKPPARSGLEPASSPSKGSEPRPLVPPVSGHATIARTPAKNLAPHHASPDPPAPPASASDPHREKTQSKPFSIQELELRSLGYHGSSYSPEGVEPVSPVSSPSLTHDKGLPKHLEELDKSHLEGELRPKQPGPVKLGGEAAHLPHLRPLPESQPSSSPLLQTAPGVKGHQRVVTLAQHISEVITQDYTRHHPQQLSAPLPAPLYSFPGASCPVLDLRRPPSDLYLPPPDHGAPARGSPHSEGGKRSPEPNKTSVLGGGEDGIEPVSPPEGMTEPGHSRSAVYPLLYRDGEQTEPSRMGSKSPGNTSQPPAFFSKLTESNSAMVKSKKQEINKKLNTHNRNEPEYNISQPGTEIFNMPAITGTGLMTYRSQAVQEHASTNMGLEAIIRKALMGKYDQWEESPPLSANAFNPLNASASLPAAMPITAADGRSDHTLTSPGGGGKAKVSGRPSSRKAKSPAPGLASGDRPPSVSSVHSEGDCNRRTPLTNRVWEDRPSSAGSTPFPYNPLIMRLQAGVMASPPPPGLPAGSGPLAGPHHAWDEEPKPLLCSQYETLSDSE

[3] = biological target: T1, GST-tagged SMRT (aa2041-aa2359) (UniProt Q9Y618 2041-2359, FITC (fluorescein isothiocyanate) label in the fluorescence anisotropy assay; unlabelled in the pull-down); test: fluorescence polarisation; fluorescence anisotropy: PPARγ wt, S273A or S273D (200 μM to 6 nM) titrated into FITC-labelled affinity purified corepressor, in the elution buffer of the corepressor; Kd from a Hill model; details: both partners purified
T1 construct: SMRT aa2041-aa2359; source: modified E. coli BL21(DE3) strain
T1 sequence (Q9Y618 2041-2359): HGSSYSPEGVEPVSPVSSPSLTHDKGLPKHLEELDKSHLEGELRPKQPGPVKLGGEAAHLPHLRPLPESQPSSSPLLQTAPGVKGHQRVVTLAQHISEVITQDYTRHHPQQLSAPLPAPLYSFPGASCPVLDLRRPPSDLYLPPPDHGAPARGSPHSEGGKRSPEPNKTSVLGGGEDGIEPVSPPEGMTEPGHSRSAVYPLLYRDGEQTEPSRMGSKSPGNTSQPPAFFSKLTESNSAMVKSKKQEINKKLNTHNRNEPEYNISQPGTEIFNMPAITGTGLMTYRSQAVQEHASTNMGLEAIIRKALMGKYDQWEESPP

[4] = biological target: B1; test: fluorescence polarisation; fluorescence anisotropy: PPARγ wt, S273A or S273D (200 μM to 6 nM) titrated into FITC-labelled affinity purified coactivator, in the elution buffer of the coactivator, with Rosiglitazone (3× molar excess); Kd from a Hill model; details: both partners purified
[5] = biological target: B1; test: pull-down; coactivators: extract of His tagged PGC1-α on TALON resin or of GST-tagged TIF2 on Glutathione Sepharose, washed; then purified tag-free PPARγ or S273A, pre-incubated 20 min with rosiglitazone, 2 h at 4°C; eluate blotted with anti-PPARγ; details: both partners purified
[6] = biological target: T2, Gal-PGC1-α (mouse PGC1-α 136-340) (mouse, UniProt O70343 136-340); test: two-hybrid; mammalian two-hybrid in COS-7 cells (coactivators): Gal4 DBD-coactivator + VP16-PPARγ LBD + pGRE-LUC + Renilla control; with or without 1 μM Rosiglitazone for 24 h; interaction rate = luminescence divided by that of the empty Gal4 vector; details: partners not purified
T2 construct: mouse PGC1-α, amino acids 136 to 340, in the vector pM (Clontech); holds ID1 LKKLL (residues 142-146); also called PGC1-α wt; Gal4-PGC1-α; source: COS-7 cells, transfected (mammalian two-hybrid fusion)
T2 sequence (looked up): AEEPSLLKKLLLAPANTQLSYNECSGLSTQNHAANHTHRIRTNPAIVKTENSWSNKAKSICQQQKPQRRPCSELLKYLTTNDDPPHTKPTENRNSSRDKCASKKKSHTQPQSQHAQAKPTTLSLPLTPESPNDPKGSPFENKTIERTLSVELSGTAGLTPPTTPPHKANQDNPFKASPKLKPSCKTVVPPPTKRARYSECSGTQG

[7] = biological target: T3, Gal-TRAP220 (ID1 + ID2, human TRAP220 404-654) (human, UniProt Q15648 404-654); test: as above; details: partners not purified
T3 construct: human TRAP220, amino acids 404 to 654 (ID1 + ID2), in the vector pM (Clontech); source: COS-7 cells, transfected (mammalian two-hybrid fusion)
T3 sequence (Q15648 404-654): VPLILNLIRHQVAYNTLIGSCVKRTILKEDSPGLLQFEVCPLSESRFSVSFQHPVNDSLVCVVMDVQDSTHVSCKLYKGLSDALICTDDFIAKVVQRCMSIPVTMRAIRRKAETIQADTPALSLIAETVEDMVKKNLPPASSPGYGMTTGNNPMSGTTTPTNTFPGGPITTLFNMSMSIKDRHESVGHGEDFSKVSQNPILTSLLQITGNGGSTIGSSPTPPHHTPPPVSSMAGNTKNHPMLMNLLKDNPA

[8] = biological target: T4, Gal-TIF2 (three interaction domains, human TIF2 624-869) (human, UniProt Q15596 624-869); test: as above; details: partners not purified
T4 construct: also called TIF2 wt; source: COS-7 cells, transfected (mammalian two-hybrid fusion)
T4 sequence (looked up): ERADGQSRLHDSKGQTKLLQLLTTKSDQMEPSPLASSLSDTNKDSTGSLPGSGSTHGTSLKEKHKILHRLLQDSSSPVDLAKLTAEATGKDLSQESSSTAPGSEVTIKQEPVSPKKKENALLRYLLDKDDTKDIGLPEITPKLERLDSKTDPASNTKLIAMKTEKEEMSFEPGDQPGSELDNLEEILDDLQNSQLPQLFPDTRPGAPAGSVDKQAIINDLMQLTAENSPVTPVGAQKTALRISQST

[9] = biological target: T2, Gal-PGC1-α (mouse PGC1-α 136-340); test: two-hybrid; as a1 (COS-7 cells, coactivators) with co-transfected pCDNA-CDK5 (CDK5 and P35); details: partners not purified
[10] = biological target: Gal-SMRT ID2m (human); test: two-hybrid; mammalian two-hybrid in Hek293T cells (corepressors): Gal4 DBD-corepressor + VP16-PPARγ LBD + pGRE-LUC + Renilla control; with or without 1 μM Rosiglitazone for 24 h; interaction rate = luminescence divided by that of the corepressor without PPARγ
[11] = biological target: T5, Gal-NCoR (ID1 + ID2 + ID3, mouse NCoR from 1629 to the C terminus) (mouse, UniProt Q60974 1629-2453); test: two-hybrid; as a2 (Hek293T cells, corepressors) with co-transfected pCDNA-CDK5 (CDK5 and P35); details: partners not purified
T5 construct: mouse NCoR from 1629 to the C terminus (ID1 + ID2 + ID3), in the vector pM (Clontech); Plasmid provided by A. Le Maire (CBS, CNRS); also called NCoR wt; source: HEK293T cells, transfected (mammalian two-hybrid fusion)
T5 sequence (looked up): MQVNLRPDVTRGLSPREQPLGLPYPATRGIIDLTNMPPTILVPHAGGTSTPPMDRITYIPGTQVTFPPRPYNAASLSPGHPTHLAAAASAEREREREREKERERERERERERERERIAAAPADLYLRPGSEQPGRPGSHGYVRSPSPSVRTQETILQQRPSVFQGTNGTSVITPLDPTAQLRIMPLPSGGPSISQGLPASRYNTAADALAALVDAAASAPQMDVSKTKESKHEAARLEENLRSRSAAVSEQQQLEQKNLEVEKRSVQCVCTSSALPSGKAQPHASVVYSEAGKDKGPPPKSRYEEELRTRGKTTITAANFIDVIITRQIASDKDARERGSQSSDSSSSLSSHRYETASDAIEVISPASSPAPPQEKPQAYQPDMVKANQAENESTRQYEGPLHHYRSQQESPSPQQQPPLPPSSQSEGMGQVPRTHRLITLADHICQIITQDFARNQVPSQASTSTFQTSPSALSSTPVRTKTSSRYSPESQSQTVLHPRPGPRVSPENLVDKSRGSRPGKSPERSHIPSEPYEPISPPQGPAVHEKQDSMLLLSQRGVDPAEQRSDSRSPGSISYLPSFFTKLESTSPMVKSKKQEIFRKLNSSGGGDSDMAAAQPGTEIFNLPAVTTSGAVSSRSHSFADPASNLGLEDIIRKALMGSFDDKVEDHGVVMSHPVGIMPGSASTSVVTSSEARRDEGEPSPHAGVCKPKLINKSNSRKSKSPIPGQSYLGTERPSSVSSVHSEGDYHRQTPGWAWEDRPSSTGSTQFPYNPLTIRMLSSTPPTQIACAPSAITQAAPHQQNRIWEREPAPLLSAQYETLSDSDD

[12] = biological target: T5, Gal-NCoR (ID1 + ID2 + ID3, mouse NCoR …); test: two-hybrid; mammalian two-hybrid in Hek293T cells (corepressors): Gal4 DBD-corepressor + VP16-PPARγ LBD + pGRE-LUC + Renilla control; with or without 1 μM Rosiglitazone for 24 h; interaction rate = luminescence divided by that of the corepressor without PPARγ; details: partners not purified

response ([1]; No treatment, parent: est. 2.3): 2.4 | other: Dissociation ratio [1]: 58%
Molecule: Gal-SMRT (ID1 + ID2, human SMRT from 982 to the C terminus) V2097A; I2098A

response ([1]; No treatment, parent: est. 0.95): 0.45 | other: Fold activation [1]: 0.5 | response ([1]; Rosiglitazone, parent: est. 1.3): 0.75
Molecule: Gal-TIF2 (three interaction domains, human TIF2 624-869) (from UniProt Q15596) ID3 LRYLL changed to LRYAA

dissociation rate in the presence of the ligand (Rosiglitazone) [2]: 65%
Molecule: VP16-PPARγ (LBD region of PPARγ fused to the VP16 transactivation domain) (from UniProt P37231 238-503) (domain or fragment)

Kd [4]: 55.8 ± 2.9 µM
B2: His tagged PGC1-α (aa138-aa341) (domain or fragment, UniProt O70343 138-341, looked up)
chain: EPSLLKKLLLAPANTQLSYNECSGLSTQNHAANHTHRIRTNPAIVKTENSWSNKAKSICQQQKPQRRPCSELLKYLTTNDDPPHTKPTENRNSSRDKCASKKKSHTQPQSQHAQAKPTTLSLPLTPESPNDPKGSPFENKTIERTLSVELSGTAGLTPPTTPPHKANQDNPFKASPKLKPSCKTVVPPPTKRARYSECSGTQGS
modifications: FITC (fluorescein isothiocyanate) label in the fluorescence anisotropy assay; unlabelled in the pull-down
notes: PGC1-α aa138-aa341; source: E. coli BL21 (DE3)

The remaining lines, values behind:

Molecule: Gal-NCoR (ID1 + ID2 + ID3, mouse NCoR from 1629 to the C terminus) (from UniProt Q60974) ID3 IDVII changed to IDVAA
response ([1]; No treatment, parent: est. 3.6): 2.2 | other: Dissociation ratio [1]: 39% | response ([1]; Rosiglitazone, parent: est. 1.2): 1.3

Molecule: Gal-TIF2 (three interaction domains, human TIF2 624-869) (from UniProt Q15596) ID2 LHRLL changed to LHRAA
response ([1]; No treatment, parent: est. 1.0): 1.3 | other: Fold activation [1]: 0.3 | response ([1]; Rosiglitazone, parent: est. 1.4): 1.7

Molecule: B1
Kd [3]: 4.06 ± 1.01 µM

B3: GST-tagged TIF2 (aa563-aa757) (domain or fragment, UniProt Q15596 563-757, looked up)
chain: QNSPVNMNPPPLSKMGSLDSKDCFGLYGEPSEGTTGQAESSCHPGEQKETNDPNLPPAVSSERADGQSRLHDSKGQTKLLQLLTTKSDQMEPSPLASSLSDTNKDSTGSLPGSGSTHGTSLKEKHKILHRLLQDSSSPVDLAKLTAEATGKDLSQESSSTAPGSEVTIKQEPVSPKKKENALLRYLLDKDDTKDI
modifications: FITC (fluorescein isothiocyanate) label in the fluorescence anisotropy assay; unlabelled in the pull-down
notes: TIF2 aa563-aa757; source: E. coli BL21 (DE3)
binding result [5]: binds

B4: VP16-PPARγ (LBD region of PPARγ fused to the VP16 transactivation domain) (domain or fragment, UniProt P37231 238-503, looked up)
chain: DLRALAKHLYDSYIKSFPLTKAKARAILTGKTTDKSPFVIYDMNSLMMGEDKIKFKHITPLQEQSKEVAIRIFQGCQFRSVEAVQEITEYAKSIPGFVNLDLNDQVTLLKYGVHEIIYTMLASLMNKDGVLISEGQGFMTREFLKSLRKPFGDFMEPKFEFAVKFNALELDDSDLAIFIAVIILSGDRPGLLNVKPIEDIQDNLLQALELQLKLNHPESSQLFAKLLQKMTDLRQIVTEHVQLLQVIKKTETDMSLHPLLQEIYKD
notes: plasmid provided by A. Le Maire (CBS, CNRS); also called PPARγ wt; source: COS-7 or HEK293T cells, transfected (mammalian two-hybrid fusion)
interaction rate in the two-hybrid assay (fold) [6]: 7 fold | interaction rate in the two-hybrid assay (fold), in absence of CDK5 [6]: 5 fold | interaction rate in the two-hybrid assay (fold) [7]: 4 fold | interaction rate in the two-hybrid assay (fold), in absence of CDK5 [8]: 1.5 fold | interaction rate in the two-hybrid assay (fold), with CDK5 [9]: 2 fold | fold reduction of the interaction against SMRT wt [10]: 6 fold | interaction rate in the two-hybrid assay (fold), with CDK5 [11]: 2 fold | interaction rate in the two-hybrid assay (fold), in absence of CDK5 [12]: 4 fold
